Patent US20230416305A1 (published 2023)
Bridges are numbered along the chain shown (N, C = ends). Where no end group is shown, it is not given here. [ ]: non-standard residue; d: D form. S5 = C=CCCC[C@](C)(N)C(=O)O

Assays:
[1] = biological target: T1, ANK domain of Notch1 intracellular segment N1ICD (UniProt P46531 1872-2126); assay: SPR
T1 chain: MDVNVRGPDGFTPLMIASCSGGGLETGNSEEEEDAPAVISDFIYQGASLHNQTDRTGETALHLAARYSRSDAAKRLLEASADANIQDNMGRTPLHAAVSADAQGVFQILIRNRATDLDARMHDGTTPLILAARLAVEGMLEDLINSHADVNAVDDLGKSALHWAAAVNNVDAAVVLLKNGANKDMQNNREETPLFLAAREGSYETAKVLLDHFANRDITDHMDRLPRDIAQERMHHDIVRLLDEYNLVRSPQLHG

ANK4 = assay: SPR
ANK5 = assay: SPR
ANK6 = assay: SPR
ANK3 = assay: SPR
ANK2 = assay: SPR
[2] = biological target: T1, ANK domain of Notch1 intracellular …; assay: SPR
[3] = biological target: T1, ANK domain of Notch1 intracellular …; assay: SPR; FIG. 1D
[4] = biological target: T1, ANK domain of Notch1 intracellular …; assay: SPR; FIG. 1C
[5] = biological target: T2, ANK1 (α-helical region of the ANK domain of N1ICD) (UniProt P46531 1927-1956); assay: SPR
T2 chain: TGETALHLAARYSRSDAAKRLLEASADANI

Binder | Kd [1] | further results
YAKRAFYQLLSKQL [mAH2-5] | 57.5 nM | –
YAKRIFYQLASKQL [mAH2-10] | 55.5 nM | –
AAKRIFYQLLSKQL [mAH2-1] | 96.1 nM | –
YAKRIFYQLLSAQL [mAH2-12] | 78.2 nM | –
[S5]AKRIFY[S5]LLSKQL (staple 1-8) [SAH-mAH2-4] | 25.8 nM | –
YAKAIFYQLLSKQL [mAH2-4] | 74.5 nM | –
YAKRIFYQLLSKEL [AH2] | – | Kd (ANK4): 66100 nM; Kd (ANK5): 42800 nM; Kd (ANK6): 64200 nM; Kd (ANK3): 85800 nM; Kd (ANK2): 23300 nM
YAKRIFYQALSKQL [mAH2-9] | 286 nM | –
YAKRIFYQLLSKAL [mAH2-13] | 99 nM | –
Y[S5]KRI[S5]YQLLSKQL (staple 2-6) [SAH-mAH2-2] | 97.7 nM | –
YAARIFYQLLSKQL [mAH2-3] | 51.1 nM | –
YAKRIFYALLSKQL [mAH2-8] | 87.4 nM | –
LLEKKRQY [AH1] | – | Kd [2]: 213 nM
[S5]AKR[S5]FYQLLSKQL (staple 1-5) [SAH-mAH2-1] | 134 nM | –
YAKRI[S5]YQLLSK[S5]L (staple 6-13) [SAH-mAH2-5 (stapled α-helix-modified α-helix 2-5)] | 0.898 nM | –
YAKRIAYQLLSKQL [mAH2-6] | 63.6 nM | –
YAKRIFYQLLSKQL [modified AH2 (mAH2), modified α-helice 2] | – | Kd [3]: 45.2 nM; Kd [4]: 60.4 nM
YAKRIFYQLLAKQL [mAH2-11] | 83.9 nM | –
YAKRIFYQLLSKQA [mAH2-14] | 5980 nM | –
YAKRIFYQLLSKEL [AH2 (α-helix 2 of N1DARP)] | – | Kd [5]: 4340 nM; Kd [2]: 60.4 nM; Kd [3]: 60.4 nM
